These results are taken from the supplement of paper PMC10567573.

To fix the notation:
B1: TRIM55 (parent)
chain: FQASNPYLPTRGGTTMASGGRFRC
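Note: lentivirally expressed fusions sorted by FACS into six bins by GFP to DsRed ratio, PSI derived from sequencing read proportions per bin multiplied by bin number.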

In this series the parent is B1. Briefly: protein stability index of a GFP-peptide fusion (GPS, HEK-293T) (PSI 1-6); higher = more stable. The note with it: c terminus: a fixed tail appended.
With FQASNPYLPQRGGTTMASGGRFRC, the protein stability index was 1.93. Then FQASNPYLPCRGGTTMASGGRFRC, with 2.17; and FQASNPYLPLRGGTTMASGGRFRC, with 2.4; and FQASNPYLPHRGGTTMASGGRFRC, with 2.17. Then FQASNPYLPTRGGTTMASGGRFEC, with 1.99; and FQASNPYLPTRGGTTMASGGRFKC, with 2.1; and FQASNPYLPTRGGTTMASGGRFPC, with 2.91. Then FQASNPYLPTRGGTTMASGGRFIC, with 1.62. For FQASNPYLPTRGGTTMASGGRFQC, the protein stability index was determined as 1.71.

Take FQASNPYLPTRGGTTMASGGRFMC: the protein stability index worked out at 1.61.

KQASNPYLPTRGGTTMASGGRFRC: the protein stability index is 3.41. Under EQASNPYLPTRGGTTMASGGRFRC stands 3.59. Under YQASNPYLPTRGGTTMASGGRFRC stands 2.06. Under FQASNPYLPTRGGTTMARGGRFRC stands 2.24; under FQASNPYLPTRGGTTMAIGGRFRC, 1.48. For the variant FQASNPYLPTRGGTTMASGGYFRC, the protein stability index turned out to be 1.68.

With FQASNPYLPTRGGTTMASGGMFRC, the protein stability index was determined as 1.81. Then FQASNPYLPTRGGTTMASRGRFRC, with 1.9.

With FQASNPYLPTRGGTTMASWGRFRC, the protein stability index stood at 1.63. Under FQASNPYLPTRGGTTMASGPRFRC stands 2.19; under FQASNPYLPTRGGTTMASGKRFRC, 2.1; under FQASNPYLPTRGGTTMASGGRMRC, 2.25.

As for FQASNPYLPTRGGTTMASGGRIRC, the protein stability index is 1.57. Under FQASNPYLPTRGGTTMASGGRARC stands 1.42; under FQASNPYLPTRGGTTMASGGRRRC, 2.13; under FQASNPYLPTRGGTTMASGGRYRC, 2.47.

In the case of FQASNPYLPTRGGTTMASGGRGRC, the protein stability index stood at 1.43. Then FQASNPYLPTRGGTTMASGGRWRC, with 2.51. Under FQASNPYLPTRGGLTMASGGRFRC stands 2.34.

Turning to FQASNPYLPTRGGCTMASGGRFRC, the protein stability index is 2.23. On to FQASNPYLPTRGGNTMASGGRFRC, for which the protein stability index turned out to be 1.73. Under FQASNPYLPTRGGGTMASGGRFRC stands 1.67. On to FQASNPYLPTRGGPTMASGGRFRC, for which the protein stability index turned out to be 2.47. Then FQASNPYHPTRGGTTMASGGRFRC, with 1.56. Then FQASNPYAPTRGGTTMASGGRFRC, with 1.81; and FWASNPYLPTRGGTTMASGGRFRC, with 2.3. Under FLASNPYLPTRGGTTMASGGRFRC stands 1.94. For the variant FEASNPYLPTRGGTTMASGGRFRC, the protein stability index turned out to be 3.38.

Take FQASNPYLPTRGGTTMASGGRFRS: the protein stability index turned out to be 1.43. Under FQASNNYLPTRGGTTMASGGRFRC stands 2.72; under FQASNGYLPTRGGTTMASGGRFRC, 2.06.

As for FQASNAYLPTRGGTTMASGGRFRC, the protein stability index worked out at 1.96. Under FQASNLYLPTRGGTTMASGGRFRC stands 2.65; under FQAYNPYLPTRGGTTMASGGRFRC, 2.12; under FQAQNPYLPTRGGTTMASGGRFRC, 1.86. In the case of FQAMNPYLPTRGGTTMASGGRFRC, the protein stability index was determined as 2.09.

For FQALNPYLPTRGGTTMASGGRFRC, the protein stability index came out at 1.66.

For the variant FQAFNPYLPTRGGTTMASGGRFRC, the protein stability index is 2.57. Then FQAPNPYLPTRGGTTMASGGRFRC, with 1.8. Under FQANNPYLPTRGGTTMASGGRFRC stands 1.72.

Regarding FQASNPYLPTRGGTTEASGGRFRC, the protein stability index was 1.12. As to FQASNPYLPTRGGTTNASGGRFRC, the protein stability index was 2.02.

As to FQASNPYLPTRGGTTQASGGRFRC, the protein stability index was found to be 1.57. Under FQASNPYLPTEGGTTMASGGRFRC stands 2.29; under FQASNPYLPTQGGTTMASGGRFRC, 1.8. Under FQASNPYLITRGGTTMASGGRFRC stands 1.89. FQASNPYLYTRGGTTMASGGRFRC: the protein stability index came out at 1.88. Under FQASNPYLLTRGGTTMASGGRFRC stands 2.65; under FQASNPYLDTRGGTTMASGGRFRC, 2.24; under FQASNPYLHTRGGTTMASGGRFRC, 1.86. Then FQASNPLLPTRGGTTMASGGRFRC, with 1.9; and FQASNPMLPTRGGTTMASGGRFRC, with 2.68. Under FQASNPPLPTRGGTTMASGGRFRC stands 3.54; under FQASNPVLPTRGGTTMASGGRFRC, 3.13. Consider FQASNPHLPTRGGTTMASGGRFRC, for which the protein stability index came to 3.36. Then FQASNPYLPTRGGTTMISGGRFRC, with 1.08; and FQASNPYLPTRGGTTMPSGGRFRC, with 1.76. Turning to FQASNPYLPTRGGTTMMSGGRFRC, the protein stability index is 1.93.

As to FQASNPYLPTRGGTTMYSGGRFRC, the protein stability index amounted to 2.11.

Regarding FQASNPYLPTRGGTTMESGGRFRC, the protein stability index came to 2.52. Then FQASNPYLPTRGGTTMRSGGRFRC, with 2.27.

As for FQASNPYLPTRGDTTMASGGRFRC, the protein stability index is 1.64. Under FQASNPYLPTRGITTMASGGRFRC stands 1.99; under FQASNPYLPTRGPTTMASGGRFRC, 1.7; under FQASNPYLPTRGWTTMASGGRFRC, 3.33. Then FQASNPYLPTRGLTTMASGGRFRC, with 3.49. On to FQASNPYLPTRGATTMASGGRFRC, for which the protein stability index stood at 1.68.

Consider FQASNPYLPTRQGTTMASGGRFRC, for which the protein stability index was determined as 1.34.

FQASNPYLPTRHGTTMASGGRFRC: the protein stability index came to 2.04. Then FQASNPYLPTRNGTTMASGGRFRC, with 1.62; and FQASNPYLPTRPGTTMASGGRFRC, with 1.55; and FQASNPYLPTRAGTTMASGGRFRC, with 1.63. Under FQASRPYLPTRGGTTMASGGRFRC stands 1.7. Then FQASNPYLPTRGGTQMASGGRFRC, with 1.65; and FQASNPYLPTRGGTIMASGGRFRC, with 1.88.

As for FQASNPYLPTRGGTLMASGGRFRC, the protein stability index came out at 1.69.

Consider FQASNPYLPTRGGTEMASGGRFRC, for which the protein stability index was 1.48. Then FQASNPYLPTRGGTCMASGGRFRC, with 1.28. On to FQASNPYLPTRGGTHMASGGRFRC, for which the protein stability index was found to be 1.18. Under FQASNPYLPTRGGTKMASGGRFRC stands 2.19; under FQDSNPYLPTRGGTTMASGGRFRC, 2.71. FQISNPYLPTRGGTTMASGGRFRC: the protein stability index turned out to be 1.76. On to FQPSNPYLPTRGGTTMASGGRFRC, for which the protein stability index is 2.02. Under FQESNPYLPTRGGTTMASGGRFRC stands 2.55.
